Measured values published in US20220177604A1 (ARGENX, published 2022).

B1: 18B9_VH_S35H_VL_Y49H (antibody, V domains shown)
VH: QVQLVESGGGLVQPGGSLRLSCAASGFTFSSYVMHWVRQAPGKGLEWVSSIYSDGSHTYYADSVKGRFTISRDNAKNTLYLQMNSLKSEDTAVYYCAKNLEHYSGSYYYTDPRYDYWGQGTQVTVSS
VL: SSALTQPSALSVTLGQTAKITCQGGSLGSSYVHWYQQKPGQAPVLVIHDGDSRPSGIPERFSGSSSGGTATLTISGAQAEDEDDYYCQSADSSGNAVFGGGTHLTVL
B2: OMA VH15 - VL3 (antibody, V domains shown)
VH: EVQLVESGGGLVQPGGSLRLSCAVSGYSITSGHRWEWIRQAPGKGLEWVASIHYDGSTNYNPSVKGRITISRDDSKNTFYLQMNSLRAEDTAVYYCARATHYFGHWHFAVWGQGTLVTVSS
VL: DIQLTQSPSSLSASVGDRVTITCRASQSVDYDGDSYMNWYQQKPGKAPKLLIEWGSYLRSGVPSRFSGSGSGTDFTLTISSLQPEDFATYYCQQNAEDPYTFGQGTKVEIK
B3: OMA VH15 - VL3D28H (antibody, V domains shown)
VH: EVQLVESGGGLVQPGGSLRLSCAVSGYSITSGHRWEWIRQAPGKGLEWVASIHYDGSTNYNPSVKGRITISRDDSKNTFYLQMNSLRAEDTAVYYCARATHYFGHWHFAVWGQGTLVTVSS
VL: DIQLTQSPSSLSASVGDRVTITCRASQSVDYHGDSYMNWYQQKPGKAPKLLIEWGSYLRSGVPSRFSGSGSGTDFTLTISSLQPEDFATYYCQQNAEDPYTFGQGTKVEIK
notes: also called OMA VH15 VL3D25H
B4: OMA VH15 - VL3S31H (antibody, V domains shown)
VH: EVQLVESGGGLVQPGGSLRLSCAVSGYSITSGHRWEWIRQAPGKGLEWVASIHYDGSTNYNPSVKGRITISRDDSKNTFYLQMNSLRAEDTAVYYCARATHYFGHWHFAVWGQGTLVTVSS
VL: DIQLTQSPSSLSASVGDRVTITCRASQSVDYDGDHYMNWYQQKPGKAPKLLIEWGSYLRSGVPSRFSGSGSGTDFTLTISSLQPEDFATYYCQQNAEDPYTFGQGTKVEIK
B5: OMA VH15 - VL3D28HS31H (antibody, V domains shown)
VH: EVQLVESGGGLVQPGGSLRLSCAVSGYSITSGHRWEWIRQAPGKGLEWVASIHYDGSTNYNPSVKGRITISRDDSKNTFYLQMNSLRAEDTAVYYCARATHYFGHWHFAVWGQGTLVTVSS
VL: DIQLTQSPSSLSASVGDRVTITCRASQSVDYHGDHYMNWYQQKPGKAPKLLIEWGSYLRSGVPSRFSGSGSGTDFTLTISSLQPEDFATYYCQQNAEDPYTFGQGTKVEIK
B6: OmaVH15G55H - VL3 (antibody, V domains shown)
VH: EVQLVESGGGLVQPGGSLRLSCAVSGYSITSGHRWEWIRQAPGKGLEWVASIHYDHSTNYNPSVKGRITISRDDSKNTFYLQMNSLRAEDTAVYYCARATHYFGHWHFAVWGQGTLVTVSS
VL: DIQLTQSPSSLSASVGDRVTITCRASQSVDYDGDSYMNWYQQKPGKAPKLLIEWGSYLRSGVPSRFSGSGSGTDFTLTISSLQPEDFATYYCQQNAEDPYTFGQGTKVEIK
B7: OmaVH15G55H - VL3D28H (antibody, V domains shown)
VH: EVQLVESGGGLVQPGGSLRLSCAVSGYSITSGHRWEWIRQAPGKGLEWVASIHYDHSTNYNPSVKGRITISRDDSKNTFYLQMNSLRAEDTAVYYCARATHYFGHWHFAVWGQGTLVTVSS
VL: DIQLTQSPSSLSASVGDRVTITCRASQSVDYHGDSYMNWYQQKPGKAPKLLIEWGSYLRSGVPSRFSGSGSGTDFTLTISSLQPEDFATYYCQQNAEDPYTFGQGTKVEIK
notes: also called OmaVH15G55H VL3D25H
B8: OmaVH15G55H - VL3S31H (antibody, V domains shown)
VH: EVQLVESGGGLVQPGGSLRLSCAVSGYSITSGHRWEWIRQAPGKGLEWVASIHYDHSTNYNPSVKGRITISRDDSKNTFYLQMNSLRAEDTAVYYCARATHYFGHWHFAVWGQGTLVTVSS
VL: DIQLTQSPSSLSASVGDRVTITCRASQSVDYDGDHYMNWYQQKPGKAPKLLIEWGSYLRSGVPSRFSGSGSGTDFTLTISSLQPEDFATYYCQQNAEDPYTFGQGTKVEIK
B9: OmaVH15G55H - VL3D28HS31H (antibody, V domains shown)
VH: EVQLVESGGGLVQPGGSLRLSCAVSGYSITSGHRWEWIRQAPGKGLEWVASIHYDHSTNYNPSVKGRITISRDDSKNTFYLQMNSLRAEDTAVYYCARATHYFGHWHFAVWGQGTLVTVSS
VL: DIQLTQSPSSLSASVGDRVTITCRASQSVDYHGDHYMNWYQQKPGKAPKLLIEWGSYLRSGVPSRFSGSGSGTDFTLTISSLQPEDFATYYCQQNAEDPYTFGQGTKVEIK
B10: Oma VH15W100b - VL3 (antibody, V domains shown)
VH: EVQLVESGGGLVQPGGSLRLSCAVSGYSITSGHRWEWIRQAPGKGLEWVASIHYDGSTNYNPSVKGRITISRDDSKNTFYLQMNSLRAEDTAVYYCARATHYFGHHHFAVWGQGTLVTVSS
VL: DIQLTQSPSSLSASVGDRVTITCRASQSVDYDGDSYMNWYQQKPGKAPKLLIEWGSYLRSGVPSRFSGSGSGTDFTLTISSLQPEDFATYYCQQNAEDPYTFGQGTKVEIK
B11: OmaVH15G55HW100b - VL3 (antibody, V domains shown)
VH: EVQLVESGGGLVQPGGSLRLSCAVSGYSITSGHRWEWIRQAPGKGLEWVASIHYDHSTNYNPSVKGRITISRDDSKNTFYLQMNSLRAEDTAVYYCARATHYFGHHHFAVWGQGTLVTVSS
VL: DIQLTQSPSSLSASVGDRVTITCRASQSVDYDGDSYMNWYQQKPGKAPKLLIEWGSYLRSGVPSRFSGSGSGTDFTLTISSLQPEDFATYYCQQNAEDPYTFGQGTKVEIK
B12: OmaVH15G55HW100b - VL3D28H (antibody, V domains shown)
VH: EVQLVESGGGLVQPGGSLRLSCAVSGYSITSGHRWEWIRQAPGKGLEWVASIHYDHSTNYNPSVKGRITISRDDSKNTFYLQMNSLRAEDTAVYYCARATHYFGHHHFAVWGQGTLVTVSS
VL: DIQLTQSPSSLSASVGDRVTITCRASQSVDYHGDSYMNWYQQKPGKAPKLLIEWGSYLRSGVPSRFSGSGSGTDFTLTISSLQPEDFATYYCQQNAEDPYTFGQGTKVEIK
notes: also called OmaVH15G55HW100b VL3D25H

What was measured:
[1] = target: T1, human immunoglobulin E (hIgE) (human, UniProt P01854-1 1-428); assay: SPR competition, hIgE over hFcεRIα chip, pH 7.4
T1 construct: also called human IgE; Native IgE (Abcam)
Experimental: (§1) The assay was performed in HBS-EP pH7.4 or HBS-EP pH 5.5. Raw data were analyzed via BIA evaluation software with a blank subtraction (2-1). […] The IC50 values of each compound were calculated with a non-linear regression (log(agonist) vs. response Variable slope (four parameters)).
(§2) Raw data were analyzed via BIA evaluation software with a blank subtraction (2-1). […] The IC50 values of each compound, calculated with a non-linear regression (log(agonist) vs. response Variable slope (four parameters)).

[2] = target: T1, human immunoglobulin E (hIgE); assay: SPR competition, hIgE over hFcεRIα chip, pH 5.5
Experimental: as §1, §2

[3] = target: T1, human immunoglobulin E (hIgE); assay: SPR (Biacore), pH 7.4
[4] = target: T2, recombinant Motavizumab human IgE (rMota-hIgE) (human, UniProt P01854 1-428); assay: hIgE binding ELISA, pH 5.5
T2 construct: also called Recombinant IgE (argenx)
Experimental: (§3) Briefly a Maxisorp plate was coated with recombinant human respiratory syncytial virus protein F (RSV-F) (0.5 μg/mL), then blocked with PBS with 3% BSA and 0.05% Tween. […] After several washing steps at pH 7.4 or pH 5.5, detection of the bound mAbs was carried out with an anti-human Fc-HRP antibody.

[5] = target: T2, recombinant Motavizumab human IgE …; assay: hIgE binding ELISA
Experimental: as §3

[6] = target: T1, human immunoglobulin E (hIgE); assay: competition ELISA, hIgE to hFcεRIα
[7] = target: T2, recombinant Motavizumab human IgE …; assay: hIgE binding ELISA, pH 7.4
Experimental: as §3

[8] = target: T1, human immunoglobulin E (hIgE); assay: SPR (Biacore), pH 6.0
[9] = target: T1, human immunoglobulin E (hIgE); assay: SPR (Biacore)

T2 sequence (P01854 other isoform, or with tags, fused parts or gaps limits assumed, form in doubt): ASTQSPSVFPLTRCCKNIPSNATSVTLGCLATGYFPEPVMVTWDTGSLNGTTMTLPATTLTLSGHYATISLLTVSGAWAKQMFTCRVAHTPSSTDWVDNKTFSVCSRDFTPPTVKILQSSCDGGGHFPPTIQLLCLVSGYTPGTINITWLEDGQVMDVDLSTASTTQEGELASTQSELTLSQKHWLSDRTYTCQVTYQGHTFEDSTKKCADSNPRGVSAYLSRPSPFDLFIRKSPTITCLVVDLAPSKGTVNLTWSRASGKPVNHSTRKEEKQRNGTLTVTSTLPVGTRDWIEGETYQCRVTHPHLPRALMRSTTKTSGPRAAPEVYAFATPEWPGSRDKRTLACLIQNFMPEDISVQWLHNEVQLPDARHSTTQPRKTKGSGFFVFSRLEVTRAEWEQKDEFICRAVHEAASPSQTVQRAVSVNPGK
T1 sequence (P01854 whole entry): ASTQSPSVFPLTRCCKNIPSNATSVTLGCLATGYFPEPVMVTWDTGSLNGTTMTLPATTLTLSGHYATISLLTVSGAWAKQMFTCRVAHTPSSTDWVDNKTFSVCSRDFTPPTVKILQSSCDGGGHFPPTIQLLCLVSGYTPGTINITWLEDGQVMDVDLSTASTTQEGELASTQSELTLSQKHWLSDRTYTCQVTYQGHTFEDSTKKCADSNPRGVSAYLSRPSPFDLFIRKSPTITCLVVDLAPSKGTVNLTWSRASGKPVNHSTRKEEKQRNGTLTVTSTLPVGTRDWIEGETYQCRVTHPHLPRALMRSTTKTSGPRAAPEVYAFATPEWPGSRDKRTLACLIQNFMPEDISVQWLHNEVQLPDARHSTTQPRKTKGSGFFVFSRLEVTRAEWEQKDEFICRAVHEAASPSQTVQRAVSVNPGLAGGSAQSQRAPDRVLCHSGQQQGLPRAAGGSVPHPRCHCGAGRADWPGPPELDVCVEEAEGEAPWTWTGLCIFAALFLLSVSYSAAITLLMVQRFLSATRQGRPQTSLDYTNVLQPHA

| Binder | IC50 [1] [µg/mL] | IC50 [2] [µg/mL] | Kd [3] [nM] | koff [3] [s⁻¹] | kon [3] [M⁻¹ s⁻¹] | EC50 [4] [µg/mL] | Ratio EC50 pH 5.5/7.4 [5] | Ratio EC50 pH 7.4/5.5 [5] | IC50 [6] [nM] | EC50 [7] [µg/mL] | Kd [8] [nM] | koff [8] [s⁻¹] | kon [8] [M⁻¹ s⁻¹] | Ratio pH 7.4/pH6.0 (of KD) [9] |
| --- | --- | --- | --- | --- | --- | --- | --- | --- | --- | --- | --- | --- | --- | --- |
| B1 | 26.3 | 24.6 |  |  |  |  |  |  |  |  |  |  |  |  |
| B2 |  |  | < 0.0769 | < 1e-05 | 130000 | 0.0217 | 1.1 | 0.93 | 0.0803 | 0.0202 | 1.03 | 0.00029 | 281000 |  |
| B3 |  |  | 0.168 | 4.41e-05 | 264000 | 0.0164 | 1 | 0.99 | 0.137 | 0.0163 | 2.62 | 0.000736 | 281000 | 15.6 |
| B4 |  |  | 0.534 | 0.000166 | 310000 | 0.0179 | 0.9 | 1.12 | 0.206 | 0.02 | 8.93 | 0.00228 | 261000 | 16.7 |
| B5 |  |  | 1.1 | 0.000334 | 302000 | 0.0178 | 1.2 | 0.86 | 0.722 | 0.0153 | 12.8 | 0.00398 | 310000 | 11.7 |
| B6 |  |  | 0.326 | 0.000105 | 323000 | 0.022 | 0.9 | 1.16 | 0.0753 | 0.0255 | 1.8 | 0.000524 | 291000 | 5.6 |
| B7 |  |  | 0.728 | 0.000206 | 283000 | 0.0251 | 0.9 | 1.05 | 0.187 | 0.0264 | 4.39 | 0.00117 | 265000 | 6 |
| B8 |  |  | 1.33 | 0.000402 | 301000 | 0.023 | 1.5 | 0.67 | 0.485 | 0.0153 | 9.07 | 0.00297 | 329000 | 6.8 |
| B9 |  |  | 2.52 | 0.000722 | 286000 | 0.023 | 1.5 | 0.67 | 2.63 | 0.0154 | 16.1 | 0.00527 | 326000 | 6.4 |
| B10 |  |  | 2.93 | 0.00103 | 351000 | 0.0326 | 1.9 | 0.53 | 1.4 | 0.0174 | 29.8 | 0.00875 | 294000 | 10.2 |
| B11 |  |  | 8.69 | 0.00226 | 261000 | 0.221 | 13.5 | 0.07 | 23.2 | 0.0164 | 150 | 0.0254 | 170000 | 17.2 |
| B12 |  |  | 15.2 | 0.00303 | 200000 | 0.13 | 9.6 | 0.1 | 172 | 0.0135 | 136 | 0.0648 | 123000 | 9 |
